Experimental data from article PMC9212912 (Structure (London, England : 1993), 2022).
Ends that are not written are not given here.

Assays:
BRD4 ET domain (600–700) [1] = biological target: T1, BRD4 ET domain (600–700) (human, UniProt O60885 600-700); assay: NMR titration
BRD4 ET domain (600–700) [2] = biological target: T1, BRD4 ET domain (600–700); assay: MST
[3] = biological target: BRD4 bromodomain 1 (residues 43–180) (human, UniProt O60885 43-180); assay: NMR titration

Binder	Kd [3] [µM]	also measured
KPSFYVYSRVKNLNSSRVPD [SARS-CoV-2 E^53−72 peptide (aa 53–72 of SARS-CoV-2 E)]		binding result (BRD4 ET domain (600–700) [1]): binds
{FAM}-SFYVYSRVKNLN [FAM-SARS-CoV-2 E^55–66 peptide]		Kd (BRD4 ET domain (600–700) [2]): 50 µM
SLVK(Ac)PS [monoacetylated SARS-CoV-2 E^K53ac peptide (aa 50–55 of SARS-CoV-2 E)]	> 1000	
SRVK(Ac)NLNSS [monoacetylated SARS-CoV-2 E^K63ac peptide (aa 60–68 of SARS-CoV-2 E)]	660	
